The values below come from US20050282743A1, “Molecular interactions in cells” (Arbor Vita Corporation, priority 2001, published 2005).

Test in all cases: G' assay
The target in assay [1] is T1, GST-AIPC PDZ domain 1 (Homo sapiens (Human)), O15018.
T1 chain: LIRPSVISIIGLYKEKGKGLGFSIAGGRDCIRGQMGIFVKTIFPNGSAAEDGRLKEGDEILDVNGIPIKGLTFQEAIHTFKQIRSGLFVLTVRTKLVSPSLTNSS

Assay [2] deals with T2, GST-KIAA0807(S) PDZ domain 1 (Homo sapiens (Human)), Q6P0Q8.
T2 chain: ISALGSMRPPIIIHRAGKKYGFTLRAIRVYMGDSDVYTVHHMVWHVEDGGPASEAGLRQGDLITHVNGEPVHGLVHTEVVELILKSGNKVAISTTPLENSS

The target in assay [3] is T3, GST-MINT1 PDZ domains 1, 2, Q02410.
T3 chain: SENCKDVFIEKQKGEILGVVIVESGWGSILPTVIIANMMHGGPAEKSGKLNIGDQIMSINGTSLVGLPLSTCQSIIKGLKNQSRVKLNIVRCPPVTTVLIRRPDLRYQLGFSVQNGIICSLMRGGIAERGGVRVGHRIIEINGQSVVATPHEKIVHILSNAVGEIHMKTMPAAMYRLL

For assay [4], the target named is GST-KIAA807 [GST: P08515].
GST-KIAA807 [GST: P08515], sequence (P08515 whole entry, the tested form may be a part): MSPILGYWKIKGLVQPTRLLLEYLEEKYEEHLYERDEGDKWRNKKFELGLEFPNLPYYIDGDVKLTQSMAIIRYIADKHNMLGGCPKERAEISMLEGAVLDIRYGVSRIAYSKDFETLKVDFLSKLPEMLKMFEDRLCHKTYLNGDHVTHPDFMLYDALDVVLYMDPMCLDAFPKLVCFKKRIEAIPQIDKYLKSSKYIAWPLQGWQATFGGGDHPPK
The target in assay [5] is T4, GST-KIAA1526 PDZ domain 1 (Homo sapiens (Human)), Q9P202.
T4 chain: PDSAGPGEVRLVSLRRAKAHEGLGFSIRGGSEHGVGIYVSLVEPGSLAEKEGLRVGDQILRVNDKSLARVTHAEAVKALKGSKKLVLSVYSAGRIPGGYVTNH

Assay [6] addresses GST-KIAA0147 PDZ domain 1 (Homo sapiens (Human)), Q14160.
The target in assay [7] is T5, GST-KIAA1634 PDZ domain 2 (Homo sapiens (Human)), Q5TCQ9.
T5 chain: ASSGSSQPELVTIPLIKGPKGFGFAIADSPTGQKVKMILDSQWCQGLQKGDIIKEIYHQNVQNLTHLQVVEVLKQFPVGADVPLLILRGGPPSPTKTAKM

Assay [8] has as its target T6, GST-PTPL1 PDZ domain 2 (Homo sapiens (Human)), Q12923.
T6 chain: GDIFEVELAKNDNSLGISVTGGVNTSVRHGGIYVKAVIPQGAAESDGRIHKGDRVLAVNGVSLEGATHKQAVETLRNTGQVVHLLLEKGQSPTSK

The target of assay [9] is GST-PAR3 PDZ domain 3 (Homo sapiens (Human)), Q8TEW0.
GST-PAR3 PDZ domain 3 (Homo sapiens (Human)), Q8TEW0, sequence (Q8TEW0 579-681): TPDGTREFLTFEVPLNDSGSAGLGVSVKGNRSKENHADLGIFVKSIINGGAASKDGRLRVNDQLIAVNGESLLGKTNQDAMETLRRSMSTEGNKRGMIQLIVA
In assay [10] the target is T7, GST-APXL-1 PDZ domain 1 (Homo sapiens (Human)), Q13796.
T7 chain: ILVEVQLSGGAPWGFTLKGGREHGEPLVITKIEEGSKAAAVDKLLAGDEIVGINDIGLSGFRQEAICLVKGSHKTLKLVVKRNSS

Assay [11] deals with GST-KIAA1634 PDZ domain 1 (Homo sapiens (Human)), Q5TCQ9.
GST-KIAA1634 PDZ domain 1 (Homo sapiens (Human)), Q5TCQ9, sequence (Q5TCQ9 401-502): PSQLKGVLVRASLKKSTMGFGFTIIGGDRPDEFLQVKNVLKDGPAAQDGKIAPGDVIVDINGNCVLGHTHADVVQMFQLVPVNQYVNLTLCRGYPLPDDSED
Assay [12] has as its target GST-DLG1 PDZ domains 1, 2 (Homo sapiens), Q12959.
Assay [13] deals with T8, GST-KIAA0382 PDZ domain 1 (Canis lupus familiaris (Dog) (Canis familiaris)), A0A8I3.
T8 chain: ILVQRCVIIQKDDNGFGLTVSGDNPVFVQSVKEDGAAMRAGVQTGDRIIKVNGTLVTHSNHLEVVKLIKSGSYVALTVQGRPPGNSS

Assay [14] has as its target T9, GST-Shank 1 PDZ domain 1 (Homo sapiens (Human)), Q9UPX8.
T9 chain: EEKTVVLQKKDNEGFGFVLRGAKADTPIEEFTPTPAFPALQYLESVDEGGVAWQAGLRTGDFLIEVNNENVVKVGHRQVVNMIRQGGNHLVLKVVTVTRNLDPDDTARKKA

The target of assay [15] is T10, GST-KIAA0973 PDZ domain 1 (Homo sapiens (Human)), Q9Y2H9.
T10 chain: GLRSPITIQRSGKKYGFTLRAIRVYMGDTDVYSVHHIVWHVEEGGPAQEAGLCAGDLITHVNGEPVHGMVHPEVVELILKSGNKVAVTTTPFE

In assay [16] the target is T11, GST-INADL PDZ domain 8 (Homo sapiens (Human)), Q8NI35.
T11 chain: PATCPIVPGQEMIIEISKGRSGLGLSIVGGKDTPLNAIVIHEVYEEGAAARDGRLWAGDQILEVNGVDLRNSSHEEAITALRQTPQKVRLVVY

Assay [17] has as its target T12, GST-MINT1 PDZ domain 2 (Mus musculus (Mouse)), B2RUJ5.
T12 chain: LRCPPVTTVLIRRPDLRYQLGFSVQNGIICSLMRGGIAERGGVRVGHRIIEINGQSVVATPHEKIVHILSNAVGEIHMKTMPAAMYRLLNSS

Assay [18] concerns the target T13, GST-PTPL1 PDZ domain 4 (Homo sapiens (Human)), Q12923.
T13 chain: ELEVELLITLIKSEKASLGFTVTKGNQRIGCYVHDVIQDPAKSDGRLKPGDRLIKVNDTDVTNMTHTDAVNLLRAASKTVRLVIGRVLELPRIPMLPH

In assay [19] the target is T14, GST-DLG1 PDZ domain 2 (Homo sapiens), Q12959.
T14 chain: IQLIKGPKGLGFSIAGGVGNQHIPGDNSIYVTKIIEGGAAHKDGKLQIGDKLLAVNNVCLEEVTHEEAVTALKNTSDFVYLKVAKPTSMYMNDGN

Assay [20] addresses T15, GST-NeDLG PDZ domains 1, 2, Q92796.
T15 chain: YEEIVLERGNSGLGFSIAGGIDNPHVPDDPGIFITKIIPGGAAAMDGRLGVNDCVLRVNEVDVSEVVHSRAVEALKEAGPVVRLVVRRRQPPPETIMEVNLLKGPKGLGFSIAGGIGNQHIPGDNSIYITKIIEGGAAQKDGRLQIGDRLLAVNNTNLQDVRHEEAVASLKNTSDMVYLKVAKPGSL

For assay [21], the target named is GST-PSD95 PDZ domains 1, 2, 3 (Homo sapiens), P78352.
GST-PSD95 PDZ domains 1, 2, 3 (Homo sapiens), P78352, sequence (P78352 62-395): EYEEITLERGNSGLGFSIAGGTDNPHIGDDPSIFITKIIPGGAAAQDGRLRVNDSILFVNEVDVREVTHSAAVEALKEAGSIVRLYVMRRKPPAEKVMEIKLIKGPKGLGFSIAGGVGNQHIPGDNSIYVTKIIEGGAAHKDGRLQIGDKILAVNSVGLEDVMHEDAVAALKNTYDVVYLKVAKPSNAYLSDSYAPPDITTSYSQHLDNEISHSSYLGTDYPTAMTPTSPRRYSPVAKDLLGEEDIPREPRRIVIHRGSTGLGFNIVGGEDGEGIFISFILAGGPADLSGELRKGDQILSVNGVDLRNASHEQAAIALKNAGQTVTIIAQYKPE
Assay [22] deals with T16, GST-TIP1 PDZ domain 1 (Table 9 insert) (Homo sapiens (Human)), O14907.
T16 chain: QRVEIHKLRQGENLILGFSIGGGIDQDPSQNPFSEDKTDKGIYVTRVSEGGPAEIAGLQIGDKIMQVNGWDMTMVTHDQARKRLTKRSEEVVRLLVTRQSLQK

Assay [23] has as its target GST-BAI-1 Associated Protein PDZ domain 2 (Mus musculus (Mouse)), Q6RHR9.
Assay [24] deals with T17, GST-MUPP1 PDZ domain 10 (Homo sapiens (Human)), O75970.
T17 chain: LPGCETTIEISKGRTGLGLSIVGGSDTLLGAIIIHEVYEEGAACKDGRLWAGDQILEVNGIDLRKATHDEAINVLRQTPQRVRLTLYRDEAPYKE
Also: key of the grades not given here.

GST-KIAA0147 PDZ domain 1 (Homo sapiens (Human)), Q14160, sequence (Q14160 other isoform, or with tags, fused parts or gaps): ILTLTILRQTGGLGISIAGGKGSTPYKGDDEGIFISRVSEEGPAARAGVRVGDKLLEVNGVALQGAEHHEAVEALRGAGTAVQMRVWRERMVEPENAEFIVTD
GST-BAI-1 Associated Protein PDZ domain 2 (Mus musculus (Mouse)), Q6RHR9, sequence (Q6RHR9 455-558): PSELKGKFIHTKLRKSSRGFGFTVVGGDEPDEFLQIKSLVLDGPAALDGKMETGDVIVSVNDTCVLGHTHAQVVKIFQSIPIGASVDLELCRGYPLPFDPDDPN

For the molecule VISKATPALPTVSISSSAEV (modifications not checked) [Clasp-1], the Classification in assay [1], in [2], in [3] and in assay [4] was 1 A450 class throughout.
In turn, SSPTYRALLLQGPSQSSSEA (modifications not checked) [GAIP (G-alpha interacting protein) RGS 19] showed a Classification in [5] of 1 A450 class.
Regarding DGGARTEDEVQSYPSKHDYV (modifications not checked) [claudin 18], the Classification in assay [3] worked out at 1 A450 class.
Turning to IVFIIHSFLSAKVTRLGLLA (modifications not checked) [alpha-1-syntrophin], the Classification in [2] was found to be 1 A450 class.
Regarding KAGYRAPRSYPKSNSSKEYV (modifications not checked) [claudin 7], the Classification in [3] amounted to 4 A450 class.
For the molecule SPQPDSTDNDDYDDISAA (modifications not checked) [CD6], the Classification in [2] and in assay [4] was 1 A450 class throughout.
For PYQSQGFSTEEDEDEQVSAV (modifications not checked) [RA-GEF (ras/rap1A-assoc-GEF)], the Classification turned out to be 1 A450 class in assay [6], 2 A450 class in assay [7] and 4 A450 class in assay [8].
As to RPMESNPDTEGAQGETEDVL (modifications not checked) [parathyroid hormone receptor 2], the Classification in assay [9] and in [10] was 1 A450 class in each case.
For GGEDFKTTNPSKQFDKNAYV (modifications not checked) [claudin 10], the Classification in [11] and in assay [12] was 1 A450 class each time.
Take KDSRPSFVGSSSGHTSTTL (modifications not checked) [CDw128B]: the Classification in [2] came out at 5 A450 class; in assay [13], 2 A450 class; in assay [4] it was 5 A450 class; in [14], 3 A450 class.
NSYVRDDAIFIKAIVDLTGL (modifications not checked) [TRAF2]: the Classification in [2] is 4 A450 class; in assay [4] it was 2 A450 class; in assay [15] it was 1 A450 class.
Consider SYPTPRPYPKPAPSSGKDYV (modifications not checked) [claudin 1], for which the Classification in assay [16] and in assay [17] was 1 A450 class in each case.
The molecule PRLKRMQQFEDLEDEIPQFV (modifications not checked) [RhoGAP 1 (PTPL1-associated)] had a Classification in assay [18] of 2 A450 class.
As to LLNVLQRQELGDGLDDEIAV (modifications not checked) [CAPON (carboxyl-terminal PDZ ligand of neuronal nitric oxide synthase) mRNA], the Classification in [9], in [1], in [2], in assay [10], in [4] and in [18] was 1 A450 class throughout.
For ESKSFTRSTVDTMAQKTQAV (modifications not checked) [C5 Anaphylatoxin receptor], the Classification in assay [18] stood at 1 A450 class.
The molecule LGYSIPSRSGASGLDKRDYV (modifications not checked) [claudin 9] gave a Classification in assay [3] of 1 A450 class.
In the case of QQYQQRQSVIFHKRAPEQAL (modifications not checked) [muscarinic Ach receptor M4], the Classification in [1], in assay [2], in assay [10] and in assay [4] was 1 A450 class each time.
In the case of VDPNSPAAKKKYVSYNNLVI (modifications not checked) [GLUR7 (metabotropic glutamate receptor)], the Classification in assay [19] was determined as 1 A450 class; in assay [9], 2 A450 class; in [11], 1 A450 class.
Consider HPTDITGLPNLSDPSVSTVV (modifications not checked) [NMDA R2C], for which the Classification in [12] was found to be 1 A450 class; in assay [20], 2 A450 class; in assay [7], 1 A450 class; in assay [8], 1 A450 class; in assay [21] it was 1 A450 class.
Consider GPDGIITVNDFTQNPRVQLE (modifications not checked) [ropporin], for which the Classification in assay [22] was 1 A450 class.
Turning to KPQIAALKEETEEEVQDTRL (modifications not checked) [CFTCR (cystic fibrosis transmembrane conductance regulator)], the Classification stood at 2 A450 class in assay [2], 1 A450 class in assay [4] and 1 A450 class in assay [14].
Take RDSFHRSSFRKAETQLSQGS (modifications not checked) [Clasp-5]: the Classification in assay [2], in assay [4], in assay [23] and in [14] was 1 A450 class in each case.
Turning to ENLELPVNPSSVVSERISSV (modifications not checked) [serotonin receptor 5-HT-2C], the Classification in assay [24] and in assay [16] was 1 A450 class throughout.
